In the DeepSol protein solubility set:

Assay: soluble on expression in E. coli; label from the status in PepcDB or PDB records

Sequence | soluble on expression in E. coli
MGSDKIHHHHHHMGKLCSFLEKHKRSFPIGLSGNTGMGYILTGGISPLSRSKGLAIDQIIEIKGFWGNGKEFHLLRPNTKNELTNEWKALCGAAIFLGIITQVKLKTQPLRPLLSWTANLSFSELSECINQAESWPNSLSLQWIYGDDIFAHAIGEIKNTDDESVMIKLLEKLPFSRNRIINKFNNMKSLPNLSFGNNNNYNNSNHSEVLGLLGPAWQEKNKQVLKILKELINKRPNKSCYIASQQLGGLTHLNDLDTSFIHRDAIWKPWINGAWEAHNQAKRKRTLEWMTECWNNLEFICPGVHLAQIHPHLEWHKKELSSAFEDWLPNLEELKAIHDPRNIMPPLK | not soluble
MSLEDGPVTNPRQEEPQKVVKEEGFARGADVSWLTQMEAEGLKFYTPDENRQEMECMDLLRDYCGVNSIRLRVWVNPKDGWNNMNDVIVKAKRAERLGLRTMIDFHFSDTWADPGHQEMPEAWKELSFDDLKIALSEHVKSVLTALKAVGVTPEWVQVGNETTPGMMLPVGSVDNPEQLTALNNAGYDAVKAICPDAKVIVHLDAGNDQWVYNRMFDILQANGGKYDMIGMSLYPYWAEQEGKTGGWLKVADDCIANIKHVKQKYNKPVMICEIGMPYDQAEACKQLITKMMQADVEGIFYWEPQAPNGYNDGYNLGCFDNNAPTIALDAFKIEGHHHHHH | soluble
MKKAVVLLSGGMDSATTLAIARQSGFACYALSIDYGQRHVAELAAAARIGQSLQVSDHQFLKLDLAVLASSVLTDISATVPLHGTSTGIPVTYVPARNTIMLALALAWAEVLGSHDIFIGVTAVDYSGYPDCRRDYIDAFEKMANLATKAGREGMVLTVHAPLIDLPKREIIQCGMELGIDYGLTVSCYQADEAGYACGQCDACHIRRAGFEAADIPDPTCYRNKQIS | not soluble
GDAAKGEKEFNKCKTCHSIIAPDGTEIVKGAKTGPNLYGVVGRTAGTYPEFKYKDSIVALGASGFAWTEEDIATYVKDPGAFLKEKLDDKKAKTEMAFKLAKGGEDVAAYLASVVK | soluble
MPYVFLLSPQLEIASQWDGYYEKTFEVSDHVHKEIILKVSGQTVLITGSGSGLGRLMAFEFGKLGARLVLWDINEQGNKETLKELEAMGVEVWTCNIFHIYRFIR | not soluble
MFRAAAPGQLRRAASLLRFQSTLVIAEHANDSLAPITLNTITAATRLGGEVSCLVAGTKCDKVAQDLCKVAGIAKVLVAQHDVYKGLLPEELTPLILATQKQFNYTHICAGASAFGKNLLPRVAAKLEVAPISDIIAIKSPDTFVRTIYAGNALCTVKCDEKVKVFSVRGTSFDAAATSGGSASSEKASSTSPVEISEWLDQKLTKSDRPELTGAKVVVSGGRGLKSGENFKLLYDLADQLHAAVGASRAAVDAGFVPNDMQVGQTGKIVAPELYIAVGISGAIQHLAGMKDSKTIVAINKDPEAPIFQVADYGIVADLFKVVPEMTEILKKK | soluble
MTIYTLSHGSLKLDVSDQGGVIEGFWRDTTPLLRPGKKSGVATDASCFPLVPFANRVSGNRFVWQGREYQLQPNVEWDAHYLHGDGWLGEWQCVSHSDDSLCLVYEHRSGVYHYRVSQAFHLTADTLTVTLSVTNQGAETLPFGTGWHPYFPLSPQTRIQAQASGYWLEREQWLAGEFCEQLPQELDFNQPAPLPRQWVNNGFAGWNGQARIEQPQEGYAIIMETTPPAPCYFIFVSDPAFDKGYAFDFFCLEPMSHAPDDHHRPEGGDLIALAPGESTTSEMSLRVEWLLEHHHHHH | soluble
MGHHHHHHSHMTSGPGGRSAAAGGRKENHQWYVCNREKLCESLQAVFVQSYLDQGTQIFLNNSIEKSGWLFIQLYHSFVSSVFSLFMSRTSINGLLGRGSMFVFSPDQFQRLLKINPDWKTHRLLDLGAGDGEVTKIMSPHFEEIYATELSETMIWQLQKKKYRVLGINEWQNTGFQYDVISCLNLLDRCDQPLTLLKDIRSVLEPTRGRVILALVLPFHPYVENGGKWEKPSEILEIKGQNWEEQVNSLPEVFRKAGFVIEAFTRLPYLCEGDMYNDYYVLDDAVFVLKPV | not soluble
PVHAVGIGPGNLDFLTPRGEEAIREADVVVGFETVVEFVADRTDADLLTCGYRDELDTLDAFAERVAGGERGTAVAMGDPNHSGYQFVGKVQRAVDRPVRIVPGI | not soluble
MAQSETVERILDAAEQLFAEKGFAETSLRLITSKAGVNLAAVNYHFGSKKALIQAVFSRFLGPFCASLEKELDRRQAKPEAQHATLEDLLHLLVSQAMAVKPRSGNDLSIFMRLLGLAFSQSQGHLRKYLEEVYGKVFRRYMLLVNEAAPKLPPIELFWRVHFMLGAAAFSMSGIKALRAMAETDFGVNTSTEQVMHLMVPFFAAGMRAESGIDDPLLAGAQLRPRNKTPAKA | soluble
MGSSHHHHHHSSGRENLYFQGHMNPNFLDFEQPIADLQAKIEELRLVGNDNALNISDEISRLQDKSKALTENIFGNLSSWQIAQLARHPKRPYTLDYIGYLFSDFEELHGDRHFADDPAIVGGVARLDGSPVMVIGHQKGREVREKVRRNFGMPRPEGYRKACRLMEMAERFKMPILTFIDTPGAYPGIDAEERGQSEAIAWNLRVMARLKTPIIATVIGEGGSGGALAIGVCDQLNMLQYSTYSVISPEGCASILWKTAEKAPEAAEAMGITAERLKGLGIVDKVIDEPLGGAHRDPASMAESIRGELLAQLKMLQGLEMGELLERRYDRLMSYGAP | soluble
MRGTDMAKQQMNIKIKKGEQFPVTIQRIGINGEGVGYFQKQVVFVPGALPGEEVIVEATDIHPTYAEAKIKRIRKRSPNRIKPPCPLYDQCGGCQLQHLSYEAQLEAKRDIVIQALRRHARRLDVDKLDIRPTIGMDNPWHYRNKSQFQVGMKEGKVLAGLYGINSHRLIDLSECRVQHPQTTRVTNIVKTILQDLRIPIYNERTRTGVVRTIVVRVGFHTGDIQLVLVTATKDIPRKQLLIDEIRRRLPEVKSIVQNINGEKTSLIFGDETEVLAGDEYIQETLGDLSFELSSRAFFQLNPLQTVKLYDEVKKAAALTGTERIVDAYCGVGTIGLWLARDAKEVRGMDTIPEAIEDAQNNAKKHGFTNTHYVVGKAEYWLPKWVKGGWKPDVIIVDPPRVGCDRALLETILHVRPKTVVYVSCNPSSLARDLDALAAQYRVDYIQPVDMFPHTAHVECVAKVRLEL | not soluble
MGKKIITISREYGSGGRQVGLTVAKKLGMEFYDKELIDAAAKEIGFPTEMIADREQRLTNSLLYNFAMGTLYGIAYPREPKVSELPLTEQIYQAQKKAIEEAAKRGSCIFVGRCADYILKSRPDVLRVFIYADRDIRKRRAIEEYGEIEEYIDEFMYQTDKRRRIHYENYTNQKWGSRENYDLMLNSGDLGLDKCVELLCEAVK | not soluble
MTNSSNLIDSLEVYVLNNPDEVKPHWVSHFIVPTANELLIKIKNKDGHSGFGLATSYTDIAPIIKPFSNGLQDLIIGEDPFCPEKIYEKIFKLTDTRLSSEKGWSREALIRISAALDIACWDLIGKASNIPLYKLFGGFRNKIPVYVTCAYYRDGKDEKELRDEIKKLVNIGHKSFKVKVGGLSIKEDVKRLEIIRDEIGDQKGLMIDVNRAWDLKTAIEGVKEFEKFKPTWIEEPVRWEDDRRTLKLLSKQTKIPLSGGESEVTIYGCRSMIEEDAIQILQFDCTMFGGFTNGKKLSALCELNHIDVAPHHDCYIHAPLVASTPAGRIVESFDDERDPLQAQLFENPHKMSEGWIHLNKKPGLGLEISDAALKKFGKLVYKNK | soluble
MGSDKIHHHHHHMYNNINYKVLWGHSEYDGSFEIMEFRQLSYFISVAKYLSFTKAAEEHHIAQTAISQQISTLEKQLNVKLFVRNNRAVELTDAGRVLLKEADLITSRVVEAERKTKQAALGFEGSLNVGILGSSEKNFLPVILKRFHKLYPKIGINLSRNSYKKLADDMKGGHLDITFIFPYELNDISHVKYRKLFDYEICLVVNKEHRLARYKKIDVKEIKNEKFIVVGKEEAPSTVKQMRKNCMGDGFKLNVVAECKNLDTMLIMVEAGMGVALVPTCVANDSNNNISYIELENSKQIVEIGVAWMEGNMNPTLKLFLGVLSDLYWDN | not soluble
MRLPTEAHLRQHVRVIDSMSCNREKVRDLRRQIPSFDCVPGCHDCCGPVTTSSEEMSRLPRKTVAEQEAAFNELNCVHLGPQGCTVYDERPLICRLFGTTASLPCPNGRRPVELIHPRAEKQIHEYMASTRQVLVLEHHHHHH | not soluble
MAHHHHHHMLRHCTAHRRYRTAWRELLHPLPVRARKMEWLKRDAVEENEEILRRPYYTIKSYALPPAVGRQESIHNSNNIRGGMHSSHSLDLIMRQPRRVKTPEQLQALRDRLRFIGVTGPMPQATSVSTKSYADTYGSRLRPRYPESWDTVPPHQPSRELL | soluble
